The values below come from article PMC8115288, “INI1/SMARCB1 Rpt1 domain mimics TAR RNA in binding to integrase to facilitate HIV-1 replication”.

Data set [1] has as its target T1, GST-IN-CTD (HIV-1 integrase C-terminal domain) (HIV-1, UniProt P04585 1348-1435). As to the kind of experiment: competition (AlphaScreen); low salt; competes with His6-SUMO-INI1(183-304) (0.094 uM) for GST-CTD (0.186 uM); Alpha proximity assay, low salt (100 mM NaCl; 500 mM in salt test); buffer, pH and temperature not in the material. The conditions noted are these: protein: recombinant; tags: GST; hairpin. For orientation: Alpha assays give light when donor and acceptor beads are brought close together.

In data set [2] the target is T1, GST-IN-CTD (HIV-1 integrase C-terminal …). As to the kind of experiment: AlphaScreen; 100 mM NaCl; displaced by INI1(183-304), IC50 of INI1 about 5 nM (Fig. 4e); Alpha proximity assay, low salt (100 mM NaCl; 500 mM in salt test); buffer, pH and temperature not in the material. The following applies: protein: recombinant; tags: GST; label: biotin; hairpin.

B1: unlabeled TAR RNA (HIV-1 vRNA 1-57) (structured_RNA)
RNA: GGUCUCUCUGGUUAGACCAGAUCUGAGCCUGGGAGCUCUCUGGCUAACUAGGGAACC
As for B1, in data set [1], the IC50 was ~5 nM.

B2: Bio-TAR RNA (HIV-1 vRNA 1-57) (structured_RNA)
RNA: GGUCUCUCUGGUUAGACCAGAUCUGAGCCUGGGAGCUCUCUGGCUAACUAGGGAACC
modifications: biotin-dT (terminal; end ambiguous in printed table)
Turning to B2, the binding result in data set [2] is reported as “binds”.

Usually IC50 stands for the concentration at which inhibition is half-maximal.
